Data: the supplement of paper PMC9170038

The sequences below were run on MS2 coat protein (assay: apparent KD of MS2 coat protein; higher = weaker reporter binding). Settings: Eterna round: R107; input ligand: theophylline 20 uM.
In short: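 Apparent KD is reported per design as the median of normalised binding-curve fits across its clusters. The RNA switches were made by on-chip transcription from Illumina sequencing clusters. SNAP-549-labelled MS2 coat protein was then added in twofold steps (0.7 or 1.5 nM to 3 µM; 0.8–1.5 h to 10–20 min per step) in 100 mM Tris-HCl pH 7.5, 80 mM KCl, 4 mM MgCl2, without or with constant ligand.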

**Q.** How did the “apparent KD of MS2 coat protein” value turn out when “AGCACUGUGACGGCCGCCACUACAUAAGUUGGGUGGUCAGGUUCAUUACAUGAGGAUCACCCAUGUAGGACCGGGUCUCAGUGCA [Omei Trp Exc B A v9]” was run?
**A.** 15.7 nM

**Q.** “GGCACAUAGUCGGCCGCCACUAGUAUAAGAUGGAAUAACAUGAGGAUCACCCAUGUAAAAGGGACUAGGACCGGGACUAUGUGCC [Rat]” was tested. Which “apparent KD of MS2 coat protein” value did it give?
**A.** 18.2 nM

**Q.** “CAGUCAGUCAGUCAAUGAGUGAGCCAUGAAGGAGCGUGGGAAACCACAGGUAGGUCGCAUGGGAAACAUGAGGAUCACCCAUGUU [SSArg A #2]” was tested. Which “apparent KD of MS2 coat protein” value did it give?
**A.** 36.9 nM

**Q.** With “UAUCGAAACUGAAGGAGCGAGAUGACAAACAUGAGGAUCACCCAUGUUAUGGGUUGUUAAUCUCAGGUAGGUCGCAGUGGUAGCA [Same State Arginine B GF 17]” as the sequence, how does the “apparent KD of MS2 coat protein” value read?
**A.** 142 nM

**Q.** For “AUGCUGACAAGGAGGUGUUCCUCAGCUGAUACCAGCCUGGAAACAGGCCCUUGGCAGCAGCACAUGAGGAUCACCCAUGUAAUAA [(T)'-(M)'-(T1)-(T2)-(M1)-(M2)_Design1(Mismatches)]”, which “apparent KD of MS2 coat protein” value is on record?
**A.** 517 nM

**Q.** “GUUCGUCCUACGGCCGCCACUAAAACACAUGAGGAUCACCCAUGUUAGUAUCCUGGCUGGUGUGAUAGGACCGGGUAGGGAAGAA [theeternabot_exclusion_MS2_Trp_B_14]” was tested. Which “apparent KD of MS2 coat protein” value did it give?
**A.** 13.6 nM

**Q.** For “AGCGGAACGGAAGGGUCCCAAAAUUGUGAUACCAGCCUUGAAUCCGGCCCUUGGCAGCACAUGAGGAUCACCCAUGUACUGCGGU [Celate]”, which “apparent KD of MS2 coat protein” value is on record?
**A.** 24.6 nM

**Q.** For “CUAUAGAUAAGAAGGAGCGACAUGAGGAUCACCCAUGUCUACCACGUCGAAAGACGCUCAUGUCAGGUAGGUCGCUUAUUUAUAG [Astros-Eli-mod7]”, which “apparent KD of MS2 coat protein” value is on record?
**A.** 99.2 nM

**Q.** For “UGACAUUGCUCAGAUACCAGACAUGAGGAUCACCCAUGUACCAAGGUAACCGAAAGGCAUGUCCCUUGGCAGCUGAGCAAUGUCU [TheoBX 2 #MS2Left #Theo2 #StaticStem]”, which “apparent KD of MS2 coat protein” value is on record?
**A.** 18.9 nM

**Q.** With “GGGCCCGGGCGCGAGCCCGGGCCCAUUGAUACCAGUGAAUGUGUACGCCCUUGGCAGCGAAUCCUAACAUGAGGAUCACCCAUGU [5.D]” as the sequence, how does the “apparent KD of MS2 coat protein” value read?
**A.** 76.7 nM

**Q.** Which “apparent KD of MS2 coat protein” value does the source give for “AGUCUUGAACGAAGGAGCGACGUACAUGAGGAUCACCCAUGUGUAGGAGCGAAAGCUCCACGUCAGGUAGGUCGCGUUCGAGACA [Omei Arginine B SS A v4]” here?
**A.** 14.4 nM

**Q.** Which “apparent KD of MS2 coat protein” value does the source give for “UGGUACAUGAGGAUCACCCAUGUGCCGGAUACCAGAGAGCCGGCUCUCCCUUGGCAGCUGGCGCGACAUGAGGAUCACCCAUGUG [Exclusion Theophylline A GF18]” here?
**A.** 32.2 nM

**Q.** How did the “apparent KD of MS2 coat protein” value turn out when “UUAGAUAUGACGGAUACCAGCGUGUUGUAGAACAUGAGGAUCACCCAUGUAGUGAUCAUGCGCCCUUGGCAGCUGGUAUGUUUGG [7.U]” was run?
**A.** 386 nM

**Q.** With “AUACAUGAGGAUCACCCAUGUCCUCGUGAUCGAGGACCGGUACGGCCGCCACUCGGUCCUCGCGAGGAGGAGUCAAAGACUCCUA [Omei Trp A SS A v6]” as the sequence, how does the “apparent KD of MS2 coat protein” value read?
**A.** 230 nM

**Q.** For “UGAGUUAGACAAAAGUCUAGCUCUGGUGAAGGAGCGUCCGAAAGGACAGGUAGGUCGCACCACAUGAGGAUCACCCAUGUUCCUU [ArgAS 10 #OpenEnded]”, which “apparent KD of MS2 coat protein” value is on record?
**A.** 192 nM

**Q.** Which “apparent KD of MS2 coat protein” value does the source give for “GGUUACUCUACGGCCGCCACUGAACAUGAGGAUCACCCAUGUAAUGUUCAGACGUCUUUAGACGACAGGACCGGGUAGUGUAACC [Tryptophan B 5]” here?
**A.** 208 nM

**Q.** Which “apparent KD of MS2 coat protein” value does the source give for “AAUUCCUAACAUGAGGAUCACCCAUGUGAAGGAGCGCCGAAUAAGGCAGGUAGGUCGCACAUGGAACAGCUGCGAAAGAGGAAAA [XArg-A 5 V1&2]” here?
**A.** 15.3 nM

**Q.** “UGUAACAUGAGGAUCACCCAUGUGAGUGAUACCAGACUAGUGUUAGUCCCUUGGCAGCACGCUGGACAAAUGUGUAGUCUAUGCG [Same State - Theophylline A (Freestyle 20)]” was tested. Which “apparent KD of MS2 coat protein” value did it give?
**A.** 112 nM

**Q.** “GAAUAAAGUAGAACACAAGACUCCUGAGAAGGAGCGCAGUCAACUGCAGGUAGGUCGCUCAGGAACACAUGAGGAUCACCCAUGU [Disoonlate]” was tested. Which “apparent KD of MS2 coat protein” value did it give?
**A.** 30.4 nM

**Q.** With “AUCCAGAGCCGAAGGAGCGCUAGAAGAUGACAUGAGGAUCACCCAUGUGUGUGAUGUGGCUAGCAGGUAGGUCGCGGACUGGAUU [Exclusion - Arginine B (Freestyle 13)]” as the sequence, how does the “apparent KD of MS2 coat protein” value read?
**A.** 28.1 nM

Same assay, conditions: Eterna round: R107; input ligand: theophylline 2 mM

**Q.** With “GGACUAACCAGAAGGAGCGACGCGCAGAAACUGCAAAAUCCUCCGCACGAGGAUCACCCGUGUCAGGUAGGUCGCUGGUUAGUCG” as the sequence, how does the “apparent KD of MS2 coat protein” value read?
**A.** 32.6 nM

**Q.** With “UGGUACUAGGCGGCCGCCACUGGGUGAUACAUGAGGAUCACCCAUGUUUAAUGCCGAGAGGCAACCAGGACCGGGCCUAGUACAU” as the sequence, how does the “apparent KD of MS2 coat protein” value read?
**A.** 473 nM

**Q.** Which “apparent KD of MS2 coat protein” value does the source give for “UAUAUAGAUGGACGUCAUAUAGAUGCAGAAGGAGCGUAGGAAACUACAGGUAGGUCGCUGAGGUACAUGAGGAUCACCCAUGUAG [SSArg A #19 Slice of Pi]” here?
**A.** 37.9 nM

**Q.** Which “apparent KD of MS2 coat protein” value does the source give for “CGCACAUGAGGAUCACCCAUGUGAGGGCAUCGAGGACCGGUACGGCCGCCACUCGCAGGACAUGAGGAUCACCCAUGUGCCGCCG [SSTA DOUBLE!!! :-D #5]” here?
**A.** 47.2 nM

**Q.** Which “apparent KD of MS2 coat protein” value does the source give for “UAGGCACGAGACAUGAGGAUCACCCAUGUUCGAGGACCGGUACGGCCGCCACUCGGUGGACUCAUGGUAAAGCCGGUGAGCCAAU [AK 1.2 SS Trypt (A)]” here?
**A.** 15.8 nM

**Q.** Which “apparent KD of MS2 coat protein” value does the source give for “UGACAUUGCUCAGAUACCAGACUUGAGGAACACCCAAGUGCCAACAAGUAUAUAAUAAAAGUCCCUUGGCAGCUGAGCAAUGUCU [TheoBX 19 #MS2Left #AlternativeMS2 #Theo2]” here?
**A.** 318 nM

**Q.** How did the “apparent KD of MS2 coat protein” value turn out when “CUGCCACGAACGGCCGCCACUUACAUGAGGAUCACCCAUGUGCCUGCGCACAAAGAAUGUCAAGAAAGGACCGGGUUCAAAUAGU [theeternabot_exclusion_MS2_Trp_B_41]” was run?
**A.** 132 nM

**Q.** With “GUCGGAGUCGGAAGGAGCGACAUGAGGAUCACCCAUGUCUCCCGUUAUGGGAGUUCCUUAGGUCAGGUAGGUCGCCGACUCCGAC [#1 Exclusion - Arginine B Attempt #24 (Inspired by Omei)]” as the sequence, how does the “apparent KD of MS2 coat protein” value read?
**A.** 234 nM

**Q.** “UGUAUGUGAUCUGAUACCAGUCCAACUGGUAAAACAAGAGGAUCACCCUUGUAAAAUUGGGACCCUUGGCAGCAGAUCGCAUACU” was tested. Which “apparent KD of MS2 coat protein” value did it give?
**A.** 29.8 nM

**Q.** Which “apparent KD of MS2 coat protein” value does the source give for “UGUGCAGGAUGCGUAAAGGGUCUUGCGCAUCGAGGACCGGUACGGCCGCCACUCGGCUGUACAUGAGGAUCACCCAUGUCAGGGU [#1 Same State - Tryptophan A Attempt #19 (HarryS)]” here?
**A.** 1830 nM

**Q.** For “UCACAUGAGGAUCACCCAUGUGUCAGAGAAGGAGCGGCCGCAAGGCCAGGUAGGUCGCUCGGGUAGCGUGAGGAUCACCCGUGUG [#1 Exclusion - Arginine A Attempt #11 (Inspired by cyborg)]”, which “apparent KD of MS2 coat protein” value is on record?
**A.** 77.5 nM

**Q.** For “GGUUACUCUACGGCCGCCACUGUAAAGUAAAGAUACCUGUACAUGACAUGAGGAUCACCCAUGUACAGGACCGGGUAGUGUAACC [Tryptophan B 16]”, which “apparent KD of MS2 coat protein” value is on record?
**A.** 804 nM

**Q.** How did the “apparent KD of MS2 coat protein” value turn out when “AAUAAUAUCCUCAUGUGAGUCGUACCAUAACGAGGACCGGUACGGCCGCCACUCGAACAUGAGGAUCACCCAUGUAGGUAUGAUA [M'-T'-T-MS2-T'' - Design 7]” was run?
**A.** 345 nM

**Q.** Which “apparent KD of MS2 coat protein” value does the source give for “AGCCAUGGAAACAUGGCGGCGGCAUGAGCGCGAGGACCGGUACGGCCGCCACUCGGGCGACAUGAGGAUCACCCAUGUUCCUCAA [ETA NP+V+V2 #21]” here?
**A.** 38.2 nM

**Q.** Which “apparent KD of MS2 coat protein” value does the source give for “UGCCGAGACGUGGAUUACCCGUGUACCGAAGGAGCGCCCGAAAGGGCAGGUAGGUCGCGGAGGACAUGAGGAUCACCCAUGUCGA” here?
**A.** 65 nM

**Q.** With “ACGACAUGAGGAUCACCCAUGUGUACUGAAGGAGCGGCGGAAACGCCAGGUAGGUCGCAGUACACCUCAACCAGCGGUCCUAAGU [EAA NP+V+V2 #2]” as the sequence, how does the “apparent KD of MS2 coat protein” value read?
**A.** 107 nM

**Q.** For “AGCACUGUGACGGCCGCCACUACAUAAGUUGGGUGGUCAGGUUCAUUACAUGAGGAUCACCCAUGUAGGACCGGGUCUCAGUGCA [Omei Trp Exc B A v9]”, which “apparent KD of MS2 coat protein” value is on record?
**A.** 12.8 nM

**Q.** For “GGCACAUAGUCGGCCGCCACUAGUAUAAGAUGGAAUAACAUGAGGAUCACCCAUGUAAAAGGGACUAGGACCGGGACUAUGUGCC [Rat]”, which “apparent KD of MS2 coat protein” value is on record?
**A.** 15.4 nM

**Q.** For “CAGUCAGUCAGUCAAUGAGUGAGCCAUGAAGGAGCGUGGGAAACCACAGGUAGGUCGCAUGGGAAACAUGAGGAUCACCCAUGUU [SSArg A #2]”, which “apparent KD of MS2 coat protein” value is on record?
**A.** 36.2 nM

**Q.** For “UAUCGAAACUGAAGGAGCGAGAUGACAAACAUGAGGAUCACCCAUGUUAUGGGUUGUUAAUCUCAGGUAGGUCGCAGUGGUAGCA [Same State Arginine B GF 17]”, which “apparent KD of MS2 coat protein” value is on record?
**A.** 245 nM

**Q.** How did the “apparent KD of MS2 coat protein” value turn out when “AUGCUGACAAGGAGGUGUUCCUCAGCUGAUACCAGCCUGGAAACAGGCCCUUGGCAGCAGCACAUGAGGAUCACCCAUGUAAUAA [(T)'-(M)'-(T1)-(T2)-(M1)-(M2)_Design1(Mismatches)]” was run?
**A.** 12.4 nM

**Q.** “GUUCGUCCUACGGCCGCCACUAAAACACAUGAGGAUCACCCAUGUUAGUAUCCUGGCUGGUGUGAUAGGACCGGGUAGGGAAGAA [theeternabot_exclusion_MS2_Trp_B_14]” was tested. Which “apparent KD of MS2 coat protein” value did it give?
**A.** 10.8 nM
